Test results taken from article PMC10937199 (ESMO Open, 2024).

Legend:
Assay in all cases: Safety
Type in all cases: in vivo, human
[1] = test system: patients with advanced solid tumors; details: Part B
[2] = test system: patients with advanced solid tumors; details: Part FE
[3] = test system: patients with advanced solid tumors; details: Part A
[4] = peposertib 100 mg q.d., all grade
[5] = peposertib 100 mg q.d., grade ≥3
[6] = peposertib 150 mg q.d., all grade
[7] = peposertib 150 mg q.d., grade ≥3
[8] = peposertib 200 mg q.d., all grade
[9] = peposertib 200 mg q.d., grade ≥3
[10] = peposertib 250 mg q.d., all grade
[11] = peposertib 250 mg q.d., grade ≥3
[12] = peposertib 100 mg b.i.d., all grade
[13] = peposertib 100 mg b.i.d., grade ≥3
[14] = peposertib 200 mg b.i.d., all grade
[15] = peposertib 200 mg b.i.d., grade ≥3
[16] = peposertib 250 mg b.i.d., all grade
[17] = peposertib 250 mg b.i.d., grade ≥3
[18] = peposertib 300 mg b.i.d., all grade
[19] = peposertib 300 mg b.i.d., grade ≥3
[20] = peposertib 400 mg b.i.d., all grade
[21] = peposertib 400 mg b.i.d., grade ≥3

Avelumab: anti-PD-L1 antibody, immune checkpoint inhibitor, 800 mg Q2W intravenous infusion [reference compound]
Avelumab-related TEAE: IRR ([1]; all dose levels): 8 (42.1%)
Avelumab-related TEAE: fatigue ([1]; all dose levels): 3 (15.8%)
Serious TEAE, avelumab related [1, 4]: 1 (33.3) n (%)
TEAE, avelumab related [1, 4]: 3 (100.0) n (%)
Serious TEAE, avelumab related [1, 5]: 1 (33.3) n (%)
TEAE, avelumab related [1, 5]: 1 (33.3) n (%)
Serious TEAE, avelumab related [1, 6]: 1 (33.3) n (%)
TEAE, avelumab related [1, 6]: 3 (100.0) n (%)
Serious TEAE, avelumab related [1, 7]: 1 (33.3) n (%)
TEAE, avelumab related [1, 7]: 1 (33.3) n (%)
Avelumab-related pneumonitis ([1]; peposertib 200 mg q.d.): 25.0%
Serious TEAE, avelumab related [1, 8]: 0 n (%)
TEAE, avelumab related [1, 8]: 3 (75.0) n (%)
Serious TEAE, avelumab related [1, 9]: 0 n (%)
TEAE, avelumab related [1, 9]: 0 n (%)
Avelumab-related pneumonitis ([1]; peposertib 250 mg q.d.): 11.1%
Serious TEAE, avelumab related [1, 10]: 2 (22.2) n (%)
TEAE, avelumab related [1, 10]: 7 (77.8) n (%)
Serious TEAE, avelumab related [1, 11]: 2 (22.2) n (%)
TEAE, avelumab related [1, 11]: 3 (33.3) n (%)
Avelumab-related TEAE: diarrhea ([2]; all dose levels): 3 (33.3%)
Avelumab-related TEAE: fatigue ([2]; all dose levels): 3 (33.3%)
Serious TEAE, avelumab related [2, 12]: 1 (25.0) n (%)
TEAE, avelumab related [2, 12]: 3 (75.0) n (%)
Serious TEAE, avelumab related [2, 13]: 1 (25.0) n (%)
TEAE, avelumab related [2, 13]: 1 (25.0) n (%)
Serious TEAE, avelumab related [2, 14]: 2 (40.0) n (%)
TEAE, avelumab related [2, 14]: 5 (100.0) n (%)
Serious TEAE, avelumab related [2, 15]: 2 (40.0) n (%)
TEAE, avelumab related [2, 15]: 3 (60.0) n (%)
Avelumab-related TEAE: diarrhea ([3]; all dose levels): 4 (13.8%)
Avelumab-related TEAE: fatigue ([3]; all dose levels): 5 (17.2%)
Avelumab-related TEAE: rash ([3]; all dose levels): 5 (17.2%)
Avelumab-related TEAE: vomiting ([3]; all dose levels): 4 (13.8%)
Serious TEAE, avelumab related [3, 12]: 0 n (%)
TEAE, avelumab related [3, 12]: 2 (50.0) n (%)
Serious TEAE, avelumab related [3, 13]: 0 n (%)
TEAE, avelumab related [3, 13]: 0 n (%)
Avelumab-related pneumonitis ([3]; peposertib 200 mg b.i.d.): 9.1%
Serious TEAE, avelumab related [3, 14]: 3 (27.3) n (%)
TEAE, avelumab related [3, 14]: 8 (72.7) n (%)
Serious TEAE, avelumab related [3, 15]: 3 (27.3) n (%)
TEAE, avelumab related [3, 15]: 3 (27.3) n (%)
Avelumab-related pneumonitis ([3]; peposertib 250 mg b.i.d.): 25.0%
Serious TEAE, avelumab related [3, 16]: 3 (75.0) n (%)
TEAE, avelumab related [3, 16]: 3 (75.0) n (%)
Serious TEAE, avelumab related [3, 17]: 3 (75.0) n (%)
TEAE, avelumab related [3, 17]: 3 (75.0) n (%)
Avelumab-related pneumonitis ([3]; peposertib 300 mg b.i.d.): 16.7%
Serious TEAE, avelumab related [3, 18]: 1 (16.7) n (%)
TEAE, avelumab related [3, 18]: 3 (50.0) n (%)
Serious TEAE, avelumab related [3, 19]: 1 (16.7) n (%)
TEAE, avelumab related [3, 19]: 2 (33.3) n (%)
Serious TEAE, avelumab related [3, 20]: 3 (75.0) n (%)
TEAE, avelumab related [3, 20]: 4 (100.0) n (%)
Serious TEAE, avelumab related [3, 21]: 3 (75.0) n (%)
TEAE, avelumab related [3, 21]: 4 (100.0) n (%)
